Data on one substance can be found in patent publication US20120100141A1.

The assay deals with Mouse GLP-1 receptor (mouse) (UniProt O35659). Nature of the assay: cell-based or functional assay.
Chain of Mouse GLP-1 receptor (mouse) (O35659 22-463): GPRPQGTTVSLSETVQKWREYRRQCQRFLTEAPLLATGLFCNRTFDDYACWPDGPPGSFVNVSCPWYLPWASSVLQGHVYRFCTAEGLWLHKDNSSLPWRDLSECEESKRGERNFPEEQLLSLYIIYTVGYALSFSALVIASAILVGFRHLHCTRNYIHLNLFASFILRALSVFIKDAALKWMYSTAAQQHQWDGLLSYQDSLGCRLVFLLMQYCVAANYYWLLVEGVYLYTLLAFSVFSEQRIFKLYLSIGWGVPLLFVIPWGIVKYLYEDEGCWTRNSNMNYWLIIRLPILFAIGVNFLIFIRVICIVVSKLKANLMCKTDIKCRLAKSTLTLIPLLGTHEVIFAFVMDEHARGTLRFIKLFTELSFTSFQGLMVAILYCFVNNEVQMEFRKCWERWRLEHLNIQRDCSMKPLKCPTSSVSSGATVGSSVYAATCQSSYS

Turning to “GLP-1 (7-36) (from UniProt P01275 98-127) (peptide)”, the pEC50, melanophore functional GLP-1R bioassay is 11.5.
